Data reported in publication PMC7610778 (Science (New York, N.Y.), 2020).
One block for each binder: values may come before it.

Columns and labels:
[1] = biological target: Atg2-Atg18-CBP complex (yeast (S. cerevisiae), UniProt P53855;P43601); assay: pull-down
[2] = biological target: T1, Atg12–Atg5-Atg16-mCherry complex (yeast (S. cerevisiae), UniProt P38316;Q12380;Q03818, Atg12–Atg5 conjugate | Atg12–Atg5 conjugate); assay: membrane recruitment to GUVs imaged by microscopy
T1 sequence 1: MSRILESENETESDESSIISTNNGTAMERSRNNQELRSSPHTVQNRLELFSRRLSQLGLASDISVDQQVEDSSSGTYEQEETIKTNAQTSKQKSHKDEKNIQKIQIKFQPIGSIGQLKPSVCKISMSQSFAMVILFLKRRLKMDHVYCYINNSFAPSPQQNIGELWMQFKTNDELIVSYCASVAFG
T1 sequence 2: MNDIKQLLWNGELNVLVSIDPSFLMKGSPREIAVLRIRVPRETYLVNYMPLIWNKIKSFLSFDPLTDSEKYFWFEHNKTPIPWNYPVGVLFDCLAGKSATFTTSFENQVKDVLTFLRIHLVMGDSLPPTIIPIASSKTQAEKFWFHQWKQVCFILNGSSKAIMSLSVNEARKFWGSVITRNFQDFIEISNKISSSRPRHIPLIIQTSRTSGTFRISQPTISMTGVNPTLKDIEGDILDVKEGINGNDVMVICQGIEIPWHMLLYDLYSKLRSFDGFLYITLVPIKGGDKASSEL
T1 sequence 3: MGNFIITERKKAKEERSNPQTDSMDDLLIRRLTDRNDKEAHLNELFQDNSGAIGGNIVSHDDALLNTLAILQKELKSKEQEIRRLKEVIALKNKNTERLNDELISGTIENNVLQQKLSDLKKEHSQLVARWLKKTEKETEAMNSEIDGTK

[3] = biological target: the molecule itself
[4] = biological target: T2, mCherry-Atg11 (yeast (S. cerevisiae), UniProt Q12527 1-1178); assay: pull-down
T2 sequence: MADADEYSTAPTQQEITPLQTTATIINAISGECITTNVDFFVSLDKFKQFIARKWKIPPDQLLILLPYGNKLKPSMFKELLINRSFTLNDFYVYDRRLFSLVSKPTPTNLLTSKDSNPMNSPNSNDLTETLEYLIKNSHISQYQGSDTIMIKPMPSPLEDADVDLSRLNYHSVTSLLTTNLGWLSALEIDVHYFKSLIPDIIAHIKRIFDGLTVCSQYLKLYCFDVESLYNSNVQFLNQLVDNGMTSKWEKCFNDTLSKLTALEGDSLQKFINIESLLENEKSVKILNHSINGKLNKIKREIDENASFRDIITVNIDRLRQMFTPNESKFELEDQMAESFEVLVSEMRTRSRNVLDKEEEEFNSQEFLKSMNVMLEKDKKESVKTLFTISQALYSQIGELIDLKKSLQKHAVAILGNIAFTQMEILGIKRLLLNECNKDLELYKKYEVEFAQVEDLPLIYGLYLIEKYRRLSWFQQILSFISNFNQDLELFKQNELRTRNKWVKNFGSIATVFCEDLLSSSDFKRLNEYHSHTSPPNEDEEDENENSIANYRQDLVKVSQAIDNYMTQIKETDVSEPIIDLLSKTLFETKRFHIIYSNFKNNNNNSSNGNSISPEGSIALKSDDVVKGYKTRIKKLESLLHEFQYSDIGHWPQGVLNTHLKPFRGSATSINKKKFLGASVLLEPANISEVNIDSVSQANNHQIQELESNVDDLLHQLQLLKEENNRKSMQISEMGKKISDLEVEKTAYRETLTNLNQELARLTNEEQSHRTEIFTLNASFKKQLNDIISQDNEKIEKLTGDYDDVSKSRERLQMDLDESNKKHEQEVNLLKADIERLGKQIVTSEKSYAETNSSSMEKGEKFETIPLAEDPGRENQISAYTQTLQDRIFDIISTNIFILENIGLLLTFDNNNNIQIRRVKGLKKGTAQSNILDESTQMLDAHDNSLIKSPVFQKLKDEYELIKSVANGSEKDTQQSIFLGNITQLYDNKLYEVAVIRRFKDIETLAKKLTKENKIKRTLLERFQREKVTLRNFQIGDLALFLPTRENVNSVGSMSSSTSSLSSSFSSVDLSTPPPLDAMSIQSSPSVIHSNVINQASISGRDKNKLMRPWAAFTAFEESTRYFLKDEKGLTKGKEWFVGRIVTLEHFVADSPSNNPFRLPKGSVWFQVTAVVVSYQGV

[5] = biological target: Atg2-mEGFP (yeast (S. cerevisiae), UniProt P53855 1-1592); assay: pull-down
Sequence of Atg2-mEGFP (P53855 whole entry): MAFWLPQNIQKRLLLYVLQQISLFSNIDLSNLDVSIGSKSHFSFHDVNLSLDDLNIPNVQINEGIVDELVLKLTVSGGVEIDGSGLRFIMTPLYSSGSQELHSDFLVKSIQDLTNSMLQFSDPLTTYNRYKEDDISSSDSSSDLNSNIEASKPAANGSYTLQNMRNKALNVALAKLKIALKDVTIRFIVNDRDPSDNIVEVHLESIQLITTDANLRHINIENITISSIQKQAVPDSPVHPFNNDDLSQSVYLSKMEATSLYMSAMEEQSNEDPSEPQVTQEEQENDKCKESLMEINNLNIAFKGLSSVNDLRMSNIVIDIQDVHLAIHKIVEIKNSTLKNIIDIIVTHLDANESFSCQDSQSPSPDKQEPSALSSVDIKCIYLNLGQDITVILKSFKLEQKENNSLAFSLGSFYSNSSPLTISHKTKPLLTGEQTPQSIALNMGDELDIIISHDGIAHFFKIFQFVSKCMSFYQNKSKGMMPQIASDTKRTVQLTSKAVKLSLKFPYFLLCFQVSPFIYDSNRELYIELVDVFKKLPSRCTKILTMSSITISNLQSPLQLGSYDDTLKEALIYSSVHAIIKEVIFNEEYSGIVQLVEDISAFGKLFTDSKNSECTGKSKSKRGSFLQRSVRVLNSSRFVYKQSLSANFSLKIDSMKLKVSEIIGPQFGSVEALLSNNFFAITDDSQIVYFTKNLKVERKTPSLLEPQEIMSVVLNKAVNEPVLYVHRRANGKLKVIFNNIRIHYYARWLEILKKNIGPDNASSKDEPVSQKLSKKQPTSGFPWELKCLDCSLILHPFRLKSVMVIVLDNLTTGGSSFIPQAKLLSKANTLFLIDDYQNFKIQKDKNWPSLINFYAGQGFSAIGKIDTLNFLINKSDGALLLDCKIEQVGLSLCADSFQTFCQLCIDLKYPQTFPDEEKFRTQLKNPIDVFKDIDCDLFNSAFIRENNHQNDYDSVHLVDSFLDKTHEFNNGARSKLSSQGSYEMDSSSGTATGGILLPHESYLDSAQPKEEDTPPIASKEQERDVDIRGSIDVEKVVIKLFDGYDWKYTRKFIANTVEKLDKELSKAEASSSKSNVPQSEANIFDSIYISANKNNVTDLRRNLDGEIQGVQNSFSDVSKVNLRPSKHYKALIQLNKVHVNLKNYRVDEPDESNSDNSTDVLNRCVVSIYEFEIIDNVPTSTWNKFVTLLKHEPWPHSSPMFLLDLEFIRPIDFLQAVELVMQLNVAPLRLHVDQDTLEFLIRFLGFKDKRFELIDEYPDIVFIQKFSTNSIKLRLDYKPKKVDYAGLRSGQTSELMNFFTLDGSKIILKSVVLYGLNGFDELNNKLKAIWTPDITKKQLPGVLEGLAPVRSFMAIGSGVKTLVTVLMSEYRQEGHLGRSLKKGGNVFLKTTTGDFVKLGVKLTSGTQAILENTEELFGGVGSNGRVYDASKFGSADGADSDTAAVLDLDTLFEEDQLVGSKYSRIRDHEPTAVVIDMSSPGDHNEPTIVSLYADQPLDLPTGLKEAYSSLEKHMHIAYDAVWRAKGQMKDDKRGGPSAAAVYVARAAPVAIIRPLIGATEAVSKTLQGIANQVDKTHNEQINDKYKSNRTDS

Sequence of Atg2-Atg18-CBP complex (P53855 whole entry, chain 1 of 2): as the sequence (P53855 whole entry) above
Sequence of Atg2-Atg18-CBP complex (P43601 whole entry, chain 2 of 2): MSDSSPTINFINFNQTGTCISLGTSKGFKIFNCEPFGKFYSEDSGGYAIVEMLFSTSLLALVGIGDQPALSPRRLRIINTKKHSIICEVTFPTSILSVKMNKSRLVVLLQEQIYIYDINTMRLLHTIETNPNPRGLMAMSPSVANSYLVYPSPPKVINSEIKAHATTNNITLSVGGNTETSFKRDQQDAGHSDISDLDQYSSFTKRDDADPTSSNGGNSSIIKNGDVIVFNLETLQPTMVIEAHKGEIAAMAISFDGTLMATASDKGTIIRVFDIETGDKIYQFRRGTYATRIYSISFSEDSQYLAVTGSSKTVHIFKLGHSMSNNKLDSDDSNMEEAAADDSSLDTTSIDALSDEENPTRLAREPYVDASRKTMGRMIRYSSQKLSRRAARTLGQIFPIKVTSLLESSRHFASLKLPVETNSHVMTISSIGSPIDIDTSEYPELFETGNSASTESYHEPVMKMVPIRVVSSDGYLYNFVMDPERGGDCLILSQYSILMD

binding result [4]: binds
B5: Atg9-EGFP in proteoliposomes (Atg9 PLs) (natural protein)
chain: MERDEYQLPNSHGKNTFLSRIFGLQSDEVNPSLNSQEMSNFPLPDIERGSSLLHSTNDSREDVDENDLRVPESDQGTSTEEEDEVDEEQVQAYAPQISDGLDGDHQLNSVTSKENVLETEKSNLERLVEGSTDDSVPKVGQLSSEEEEDNEFINNDGFDDDTPLFQKSKIHEFSSKKSNTIEDGKRPLFFRHILQNNRPQRDTQKLFTSSNAIHHDKDKSANNGPRNINGNQKHGTKYFGSATQPRFTGSPLNNTNRFTKLFPLRKPNLLSNISVLNNTPEDRINTLSVKERALWKWANVENLDIFLQDVYNYYLGNGFYCIILEKILNICTLLFVVFVSTYMGHCVDYSKLPTSHRVSDIIIDKCYSNSITGFTKFFLWMFYFFVILKIVQLYFDVQKLSELQNFYKYLLNISDDELQTLPWQNVIQQLMYLKDQNAMTANVVEVKAKNRIDAHDVANRIMRRENYLIALYNSDILNLSLPIPLFRTNVLTKTLEWNINLCVMGFVFNESGFIKQSILKPSQREFTREELQKRFMLAGFLNIILAPFLVTYFVLLYFFRYFNEYKTSPGSIGARQYTPIAEWKFREYNELYHIFKKRISLSTTLANKYVDQFPKEKTNLFLKFVSFICGSFVAILAFLTVFDPENFLNFEITSDRSVIFYITILGAIWSVSRNTITQEYHVFDPEETLKELYEYTHYLPKEWEGRYHKEEIKLEFCKLYNLRIVILLRELTSLMITPFVLWFSLPSSAGRIVDFFRENSEYVDGLGYVCKYAMFNMKNIDGEDTHSMDEDSLTKKIAVNGSHTLNSKRRSKFTAEDHSDKDLANNKMLQSYVYFMDDYSNSENLTGKYQLPAKKGYPNNEGDSFLNNKYSWRKQFQPGQKPELFRIGKHALGPGHNISPAIYSTRNPGKNWDNNNNGDDIKNGTNNATAKNDDNNGNNDHEYVLTESFLDSGAFPNHDVIDHNKMLNSNYNGNGILNKGGVLGLVKEYYKKSDVGR

binding result [5]: binds
B6: Atg5-mCherry-Atg16(1-46) (complex)
chain 1: MNDIKQLLWNGELNVLVSIDPSFLMKGSPREIAVLRIRVPRETYLVNYMPLIWNKIKSFLSFDPLTDSEKYFWFEHNKTPIPWNYPVGVLFDCLAGKSATFTTSFENQVKDVLTFLRIHLVMGDSLPPTIIPIASSKTQAEKFWFHQWKQVCFILNGSSKAIMSLSVNEARKFWGSVITRNFQDFIEISNKISSSRPRHIPLIIQTSRTSGTFRISQPTISMTGVNPTLKDIEGDILDVKEGINGNDVMVICQGIEIPWHMLLYDLYSKLRSFDGFLYITLVPIKGGDKASSEL
chain 2: MGNFIITERKKAKEERSNPQTDSMDDLLIRRLTDRNDKEAHLNELF

Continued, binder first:

B1: Atg12–Atg5-Atg16-GFP complex (complex)
chain 1: MSRILESENETESDESSIISTNNGTAMERSRNNQELRSSPHTVQNRLELFSRRLSQLGLASDISVDQQVEDSSSGTYEQEETIKTNAQTSKQKSHKDEKNIQKIQIKFQPIGSIGQLKPSVCKISMSQSFAMVILFLKRRLKMDHVYCYINNSFAPSPQQNIGELWMQFKTNDELIVSYCASVAFG
chain 2: MNDIKQLLWNGELNVLVSIDPSFLMKGSPREIAVLRIRVPRETYLVNYMPLIWNKIKSFLSFDPLTDSEKYFWFEHNKTPIPWNYPVGVLFDCLAGKSATFTTSFENQVKDVLTFLRIHLVMGDSLPPTIIPIASSKTQAEKFWFHQWKQVCFILNGSSKAIMSLSVNEARKFWGSVITRNFQDFIEISNKISSSRPRHIPLIIQTSRTSGTFRISQPTISMTGVNPTLKDIEGDILDVKEGINGNDVMVICQGIEIPWHMLLYDLYSKLRSFDGFLYITLVPIKGGDKASSEL
chain 3: MGNFIITERKKAKEERSNPQTDSMDDLLIRRLTDRNDKEAHLNELFQDNSGAIGGNIVSHDDALLNTLAILQKELKSKEQEIRRLKEVIALKNKNTERLNDELISGTIENNVLQQKLSDLKKEHSQLVARWLKKTEKETEAMNSEIDGTK
modifications: Atg12–Atg5 conjugate | Atg12–Atg5 conjugate
binding result [1]: binds

B2: Atg21 (natural protein)
chain: MKVLQFNQDATCCVVAASSHQISIFNCDPFGKCFEIDTKNSKKKTSNNNGSASNSESRNNEESILITNGSRDRTDAEEEEDNEDNALVTGNILKEGEFVIEMLFSTSLIAIADRGQGLNKGKKLKIVNTKRKCTICEIVFPHEIVDVVMNRKRMCVLLESDQIFIYDISCMKPLETIDLWEDHYKRSQANSFSNASNTGTLEGDSANLNRVATNLLANATQKSVNGSNPSVRTRRNSLRSKIRPRMVLSNDDRSILCFTAYSSPKKNKPNSEALYDVVIYDTLNVTPVNYLNSVHKGNVACLAVSHDGKLLATASDKGTIIRVFHTGVDSDYMSSRSLFKEFRRGTRLCNLYQLAFDKSMTMIGCVGDTDTIHLFKLDDASNSLPGDNSSNGHWNEEEYILASNSNPSMGTPKEIPLSKPRIANYFSKKIKSSIPNQNLSRNFAYITVNESNRSCLGFPDEFPNQVYIASDDGTFSIYSIPSKPGECVLTKNNKFT
binding result [2]: binds

B3: Atg11 (full length; fluorescent tag of this experiment not told) (natural protein)
chain: MADADEYSTAPTQQEITPLQTTATIINAISGECITTNVDFFVSLDKFKQFIARKWKIPPDQLLILLPYGNKLKPSMFKELLINRSFTLNDFYVYDRRLFSLVSKPTPTNLLTSKDSNPMNSPNSNDLTETLEYLIKNSHISQYQGSDTIMIKPMPSPLEDADVDLSRLNYHSVTSLLTTNLGWLSALEIDVHYFKSLIPDIIAHIKRIFDGLTVCSQYLKLYCFDVESLYNSNVQFLNQLVDNGMTSKWEKCFNDTLSKLTALEGDSLQKFINIESLLENEKSVKILNHSINGKLNKIKREIDENASFRDIITVNIDRLRQMFTPNESKFELEDQMAESFEVLVSEMRTRSRNVLDKEEEEFNSQEFLKSMNVMLEKDKKESVKTLFTISQALYSQIGELIDLKKSLQKHAVAILGNIAFTQMEILGIKRLLLNECNKDLELYKKYEVEFAQVEDLPLIYGLYLIEKYRRLSWFQQILSFISNFNQDLELFKQNELRTRNKWVKNFGSIATVFCEDLLSSSDFKRLNEYHSHTSPPNEDEEDENENSIANYRQDLVKVSQAIDNYMTQIKETDVSEPIIDLLSKTLFETKRFHIIYSNFKNNNNNSSNGNSISPEGSIALKSDDVVKGYKTRIKKLESLLHEFQYSDIGHWPQGVLNTHLKPFRGSATSINKKKFLGASVLLEPANISEVNIDSVSQANNHQIQELESNVDDLLHQLQLLKEENNRKSMQISEMGKKISDLEVEKTAYRETLTNLNQELARLTNEEQSHRTEIFTLNASFKKQLNDIISQDNEKIEKLTGDYDDVSKSRERLQMDLDESNKKHEQEVNLLKADIERLGKQIVTSEKSYAETNSSSMEKGEKFETIPLAEDPGRENQISAYTQTLQDRIFDIISTNIFILENIGLLLTFDNNNNIQIRRVKGLKKGTAQSNILDESTQMLDAHDNSLIKSPVFQKLKDEYELIKSVANGSEKDTQQSIFLGNITQLYDNKLYEVAVIRRFKDIETLAKKLTKENKIKRTLLERFQREKVTLRNFQIGDLALFLPTRENVNSVGSMSSSTSSLSSSFSSVDLSTPPPLDAMSIQSSPSVIHSNVINQASISGRDKNKLMRPWAAFTAFEESTRYFLKDEKGLTKGKEWFVGRIVTLEHFVADSPSNNPFRLPKGSVWFQVTAVVVSYQGV
stoichiometry N [3]: 2

B4: Atg19-3D (S390D, S391D, S396D) (natural protein)
chain: MNNSKTNQQMNTSMGYPLTVYDECNKFQLIVPTLDANIMLWCIGQLSLLNDSNGCKHLFWQPNDKSNVRILLNNYDYGHLFKYLQCQRKCSVYIGEGTLKKYNLTISTSFDNFLDLTPSEEKESLCREDAHEDPVSPKAGSEEEISPNSTSNVVVSRECLDNFMKQLLKLEESLNKLELEQKVTNKEPNHRISGTIDIPEDRSELVNFFTELKTVKQLEDVFQRYHDYERLSQECDSKTEIASDHSKKETKIEVEPPNERSLQITMNQRDNSLYFQLFNNTNSVLAGNCKLKFTDAGDKPTTQIIDMGPHEIGIKEYKEYRYFPYALDLEAGSTIEIENQYGEVIFLGKYGSSPMINLRPPSRLSAESLQASQEPFYSFQIDTLPELDDDDIISTDISLSYDGDDNEKALTWEEL
binding result [4]: binds
